This note sets out measurements from publication PMC9314367.

The test addresses Rubisco large subunit CbbL of Cyanobium sp. PCC 7001 (Cyanobium sp. PCC 7001). Briefly: cryo-EM structure; cryo-electron tomography with subtomogram averaging (emClarity) of Rubisco inside isolated native Cyanobium α-carboxysomes in TEMB buffer; 3.8 Å; all Rubiscos and the three concentric layers averaged separately.

Turning to “Rubisco large subunit CbbL of Cyanobium sp. PCC 7001 (natural protein)”, the stoichiometry N was found to be 8.
